From US20180142007A1 (AXON NEUROSCIENCE, published 2018)

Tests used:
Assay in all cases: direct ELISA, tau peptide coated on plate
tau peptide 282-311 = molecular target: T1, tau peptide 282-311 (human)
T1 construct: Synthetic peptide (EZBiolabs), numbered on tau 2N4R; also called peptide derived from MTBRII
T1 peptide: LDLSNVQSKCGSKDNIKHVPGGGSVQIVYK

tau peptide 314-342 = molecular target: T2, tau peptide 314-342 (human)
T2 construct: Synthetic peptide (EZBiolabs), numbered on tau 2N4R
T2 peptide: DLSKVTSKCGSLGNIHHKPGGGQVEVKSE

tau peptide 256-285 = molecular target: T3, tau peptide 256-285 (human)
T3 construct: Synthetic peptide (EZBiolabs), numbered on tau 2N4R
T3 peptide: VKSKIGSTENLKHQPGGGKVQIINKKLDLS

tau peptide 352-380 = molecular target: T4, tau peptide 352-380 (human)
T4 construct: Synthetic peptide (EZBiolabs), numbered on tau 2N4R
T4 peptide: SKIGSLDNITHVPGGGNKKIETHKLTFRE

Measured: binding result

B1: chimeric DC8E8 (isotype not stated where tested) (antibody)
VH: QVQLQQSGPELVKPGTSVKMPCKASGYIFTDYVISWVKQRTGQGLEWIGEIFPRSGSTYYNEKFKGKATLTADKSSNTAYMQLSSVTSEDSAVYFCARDYYGTSFAMDYWGQGTSVTVSS
light: DIVMSQSPSSLAVSAGEKVTMSCKSSQSLLNSRTRKNYLAWYQQKPGQSPKLLIYWASTRESGVPDRFTGSGSGTDFTLTISSVQAEDLAVYYCKQSFYLRTFGGGTKLDIKRTVAAPSVFIFPPSDEQLKSGTASVVCLLNNFYPREAKVQWKVDNALQSGNSQESVTEQDSKDSTYSLSSTLTLSKADYEKHKVYACEVTHQGLSSPVTKSFNRGEC
notes: Whole chimeric antibody with human constant regions; also called chimeric antibody
binds: all assays above

B2: mouse monoclonal antibody DC8E8 (antibody, mouse IgG1)
heavy: QVQLQQSGPELVKPGTSVKMPCKASGYIFTDYVISWVKQRTGQGLEWIGEIFPRSGSTYYNEKFKGKATLTADKSSNTAYMQLSSVTSEDSAVYFCARDYYGTSFAMDYWGQGTSVTVSSAKTTPPSVYPLAPGSAAQTNSMVTLGCLVKGYFPEPVTVTWNSGSLSSGVHTFPAVLQSDLYTLSSSVTVPSSTWPSQTVTCNVAHPASSTKVDKKIVPRDCGCKPCICTVPEVSSVFIFPPKPKDVLTITLTPKVTCVVVDISKDDPEVQFSWFVDDVEVHTAQTKPREEQINSTFRSVSELPIMHQDWLNGKEFKCRVNSAAFPAPIEKTISKTKGRPKAPQVYTIPPPKEQMAKDKVSLTCMITNFFPEDITVEWQWNGQPAENYKNTQPIMDTDGSYFVYSKLNVQKSNWEAGNTFTCSVLHEGLHNHHTEKSLSHSPGK
VL: DIVMSQSPSSLAVSAGEKVTMSCKSSQSLLNSRTRKNYLAWYQQKPGQSPKLLIYWASTRESGVPDRFTGSGSGTDFTLTISSVQAEDLAVYYCKQSFYLRTFGGGTKLDIK
notes: also called murine DC8E8; mouse DC8E8
binds: tau peptide 314-342 | tau peptide 256-285 | tau peptide 352-380
